Measured values: article PMC2884976 (The Journal of General Virology, 2007)

B1: GST–M1 middle domain fusion protein (domain or fragment)
chain: GDPNNMDKAVKLYRKLKREITFHGAKEISLSYSAGALASCMGLIYNRMGAVTTEVAFGLVCATCEQIADSQHRSHRQM
notes: not shown: GST, N-terminal, kept
B2: GST–M1 N+M domain fusion protein (domain or fragment)
chain: MSLLTEVETYVLSIIPSGPLKAEIAQRLEDVFAGKNTDLEVLMEWLKTRPILSPLTKGILGFVFTLTVPSERGLQRRRFVQNALNGNGDPNNMDKAVKLYRKLKREITFHGAKEISLSYSAGALASCMGLIYNRMGAVTTEVAFGLVCATCEQIADSQHRSHRQM
notes: as for B1
B3: untagged WT radiolabelled M1, in vitro translated (natural protein)
chain: MSLLTEVETYVLSIIPSGPLKAEIAQRLEDVFAGKNTDLEVLMEWLKTRPILSPLTKGILGFVFTLTVPSERGLQRRRFVQNALNGNGDPNNMDKAVKLYRKLKREITFHGAKEISLSYSAGALASCMGLIYNRMGAVTTEVAFGLVCATCEQIADSQHRSHRQMVTTTNPLIRHENRMVLASTTAKAMEQMAGSSEQAAEAMEVASQARQMVQAMRTIGTHPSSSAGLKNDLLENLQAYQKRMGVQMQRFK
B4: GST–M1 M+C domain fusion protein (domain or fragment)
chain: GDPNNMDKAVKLYRKLKREITFHGAKEISLSYSAGALASCMGLIYNRMGAVTTEVAFGLVCATCEQIADSQHRSHRQMVTTTNPLIRHENRMVLASTTAKAMEQMAGSSEQAAEAMEVASQARQMVQAMRTIGTHPSSSAGLKNDLLENLQAYQKRMGVQMQRFK
notes: as for B1

How the values were obtained:
Test in all cases: pull-down
purified NP = purified NP (influenza A virus A/PR/8/34 (PR8), UniProt P03466 1-498); details: both partners purified
Chain of purified NP (P03466 whole entry): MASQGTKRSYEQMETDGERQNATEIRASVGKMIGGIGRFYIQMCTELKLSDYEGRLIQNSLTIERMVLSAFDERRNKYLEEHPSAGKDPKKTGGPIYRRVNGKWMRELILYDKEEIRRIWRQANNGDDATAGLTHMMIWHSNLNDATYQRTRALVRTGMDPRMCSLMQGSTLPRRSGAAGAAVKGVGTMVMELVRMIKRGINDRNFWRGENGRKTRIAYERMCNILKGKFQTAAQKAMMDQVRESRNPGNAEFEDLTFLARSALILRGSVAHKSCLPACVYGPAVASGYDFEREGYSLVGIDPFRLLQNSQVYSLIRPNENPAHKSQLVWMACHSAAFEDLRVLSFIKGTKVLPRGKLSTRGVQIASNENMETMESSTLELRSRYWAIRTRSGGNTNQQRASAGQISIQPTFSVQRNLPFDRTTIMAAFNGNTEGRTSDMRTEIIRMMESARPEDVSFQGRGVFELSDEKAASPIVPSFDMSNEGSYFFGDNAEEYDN

[1] = target: B4; details: one partner purified
[2] = target: B1; details: one partner purified
[3] = target: T1, GST–M1 C-terminal domain fusion protein (influenza A virus A/PR/8/34 (PR8), UniProt P03485 165-252); details: one partner purified
T1 construct: Cloned into pGEX-3X; not shown: GST, N-terminal, kept

Binder	binding result (purified NP)	binding activity relative to full-length GST–M1 [1] [fold]	binding activity relative to full-length GST–M1 [2] [fold]	binding activity relative to full-length GST–M1 [3] [%]
B1	binds			
B2	binds			
B3		2	2	~40
B4	binds			
